Data: IntAct's records for PubMed 23524951

B1: Activating molecule in BECN1-regulated autophagy protein 1 (Homo sapiens), Q9C0C7-3 (parent)
chain: MKVVPEKNAVRILWGRERGARAMGAQRLLQELVEDKTRWMKWEGKRVELPDSPRSTFLLAFSPDRTLLASTHVNHNIYITEVKTGKCVHSLIGHRRTPWCVTFHPTISGLIASGCLDGEVRIWDLHGGSESWFTDSNNAIASLAFHPTAQLLLIATANEIHFWDWSRREPFAVVKTASEMERVRLVRFDPLGHYLLTAIVNPSNQQGDDEPEIPIDGTELSHYRQRALLQSQPVRRTPLLHNFLHMLSSRSSGIQVGEQSTVQDSATPSPPPPPPQPSTERPRTSAYIRLRQRVSYPTAECCQHLGILCLCSRCSGTRVPSLLPHQDSVPPASARATTPSFSFVQTEPFHPPEQASSTQQDQGLLNRPSAFSTVQSSTAGNTLRNLSLGPTRRSLGGPLSSHPSRYHREIAPGLTGSEWTRTVLSLNSRSEAESMPPPRTSASSVSLLSVLRQQEGGSQASVYTSATEGRGFPASGLATESDGGNGSSQNNSGSIRHELQCDLRRFFLEYDRLQELDQSLSGEAPQTQQAQEMLNNNIESERPGPSHQPTPHSSENNSNLSRGHLNRCRACHNLLTFNNDTLRWERTTPNYSSGEASSSWQVPSSFESVPSSGSQLPPLERTEGQTPSSSRLELSSSASPQEERTVGVAFNQETGHWERIYTQSSRSGTVSQEALHQDMPEESSEEDSLRRLSPAAYYAQRMIQYLSRRDSIRQRSMRYQQNRLRSSTSSSSSDNQGPSVEGTDLEFEDFEDNGDRSRHRAPRNARMSAPSLGRFVPRRFLLPEYLPYAGIFHERGQPGLATHSSVNRVLAGAVIGDGQSAVASNIANTTYRLQWWDFTKFDLPEISNASVNVLVQNCKIYNDASCDISADGQLLAAFIPSSQRGFPDEGILAVYSLAPHNLGEMLYTKRFGPNAISVSLSPMGRYVMVGLASRRILLHPSTEHMVAQVFRLQQAHGGETSMRRVFNVLYPMPADQRRHVSINSARWLPEPGLGLAYGTNKGDLVICRPEALNSGVEYYWDQLNETVFTVHSNSRSSERPGTSRATWRTDRDMGLMNAIGLQPRNPATSVTSQGTQTLALQLQNAETQTEREVPEPGTAASGPGEGEGSEYGASGEDALSRIQRLMAEGGMTAVVQREQSTTMASMGGFGNNIIVSHRIHRSSQTGTEPGAAHTSSPQPSTSRGLLPEAGQLAERGLSPRTASWDQPGTPGREPTQPTLPSSSPVPIPVSLPSAEGPTLHCELTNNNHLLDGGSSRGDAAGPRGEPRNR
partner: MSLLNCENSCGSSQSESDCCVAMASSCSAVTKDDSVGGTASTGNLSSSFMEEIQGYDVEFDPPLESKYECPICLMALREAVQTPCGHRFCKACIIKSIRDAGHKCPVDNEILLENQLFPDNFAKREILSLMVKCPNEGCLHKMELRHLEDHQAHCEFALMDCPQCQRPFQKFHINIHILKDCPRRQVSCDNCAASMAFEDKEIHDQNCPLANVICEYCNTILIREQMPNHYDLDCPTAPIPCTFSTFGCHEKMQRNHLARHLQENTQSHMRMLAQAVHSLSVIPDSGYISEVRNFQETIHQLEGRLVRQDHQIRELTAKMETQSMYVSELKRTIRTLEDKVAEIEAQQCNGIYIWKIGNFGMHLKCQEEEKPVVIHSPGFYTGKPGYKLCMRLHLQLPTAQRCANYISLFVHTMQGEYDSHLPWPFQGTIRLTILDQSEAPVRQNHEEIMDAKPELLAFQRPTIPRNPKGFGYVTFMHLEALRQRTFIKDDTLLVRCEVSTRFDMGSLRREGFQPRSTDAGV

Variants of: B1
Details: with traf6_human TRAF6, Q9Y4K3

effect of a mutation on the interaction	Variant
disrupting interaction strength	E620A
